Target: T1, Jumu FKH domain (SPR) (UniProt Q7K214 391-540)
T1 sequence: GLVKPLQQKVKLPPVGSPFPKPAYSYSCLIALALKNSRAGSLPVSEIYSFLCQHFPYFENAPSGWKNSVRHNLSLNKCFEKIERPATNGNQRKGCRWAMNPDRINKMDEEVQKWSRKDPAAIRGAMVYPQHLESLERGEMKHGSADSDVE
Test: SPR; EMSA: 20 mM HEPES pH 7.5, 50 mM KCl, 1 mM DTT (printed DDT), 1 mM EDTA, 0.01 mg/ml BSA, 2% Ficoll 400, 5 ng/µl poly(dI:dC), 25 °C, 15 nM probe; SPR: 20 mM Tris-Cl pH 8.0, 150 mM NaCl, 0.005% Tween 20, 25 °C; pull-down: 50 mM Tris-HCl pH 8, 150 mM NaCl, 1 mM DTT, 0.25% NP40
Details: protein: recombinant; label: 5' and 3' FAM (EMSA); biotin (SPR, pull-down)

B1: 6mA-dsDNA probe (dsDNA)
DNA 1: GCTATTTATGCGTTCTTTTCTTCTTTCTCATTTCTATATTTATAGTGTGTGTGTGTGTGTGGGTGTGTTTGTTGTATGTGGTTAAATATGCTTCGTTTTTGTTTAATTGGTTTTTGTTTTTGTGATGATCATGGG
DNA 2: CCCATGATCATCACAAAAACAAAAACCAATTAAACAAAAACGAAGCATATTTAACCACATACAACAAACACACCCACACACACACACACACTATAAATATAGAAATGAGAAAGAAGAAAAGAACGCATAAATAGC
modifications: N6-methyladenine in place of dA, by PCR with dm6ATP (both strands; primer-derived adenines probably unmodified, primers not given)
Kd: 2.37 µM

B2: dA-dsDNA probe (dsDNA)
DNA 1: B1 DNA 1
DNA 2: B1 DNA 2
Kd: 42.1 µM
